Results taken from the nanobody polyreactivity screen of Harvey et al. (2022).

Assay: yeast display, Sf9 membrane polyspecificity reagent, FACS + sequencing; frameworks hold sequencing errors
How it was run: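 Galactose induction of a Saccharomyces cerevisiae BJ5465 synthetic nanobody display library ran 36–48 hours. The cells were then stained for 1 hour at 4 °C with 10% biotinylated, detergent-solubilized Sf9 membrane reagent, pulled down on streptavidin microbeads and FACS-sorted into low and high (top ~1%) gates on expression and reagent-binding fluorescence. Labels for polyreactivity follow the gate of origin.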

Row | Sequence | polyreactivity (PSR sort gate)
1 | QVQLVEAGGGLVQAGGSLRLCCAASGSTFVHYAMGWYRQAPGKERELVAAITTSGTGTFYADSVKGRFTISRENAKNNVYLQMNSLKPEETAVNYCAADIYPVWIYLLYVYWGQGTQVTVSS | low polyreactivity
2 | QVQLVEAGGGLVQAGGSLRLSCAACGSIFISYAMGWYRQAPGKERELVAAISSGGSTNYADSVKGRFTISRDNAKNTVYLQMNSLTPEDTAVYYCAADGWLWSFTGDGWWFDYWGQGTQVTVSS | low polyreactivity
3 | QVQLVEAGGGLVQAGGSLRLSCAASGITYSKYANGWYIQAPWKERELVAAISQRGGSTYYADSVKGRFTISRDNAKNTVYLQMNSLKPEDTAVYYCNAEFYWSIIAYEYWGQGTQVTVSS | high polyreactivity
4 | QVQLVEAGGGLVQAGGSLRLSCAASGLIFWAYAMGWYRQAPGKERELVAAINWRGGSTYYADSVKGRFTISRDNAKNTVDLQMNSLKPEDTAVYYCADDSYYDEYDYLGQGTQVTVSS | low polyreactivity
5 | QVQLVEAGGGLVQAGGSLRLSCAASGRIFGRYVMGWYRQAPGKERELVASISTRRGRTYYADSVKGRFTSSRDNAKNTVYLQMNSLKPEDTAVYYCATAYSSHYGIHRRYEYWGQGTQVTVSS | high polyreactivity
6 | QVQLVEAGGGLVQAGGSLRLSCAASGRTFRWYAMGWYRQAPGKERELVAAITIGGASTYYADSVKGRFTISRDNAKNTVYLQMNSLQPEYTAVNYCNAVFVGNDYWGQGTLVTVSS | low polyreactivity
7 | QVQLVEAGGGLVQAGGSLRLSCAASGSIFGSYAMGWYRQAPGKERELVAAISGSGGRTYYADSVKGRFTISRDNAKISVYLQMNSLKPDDTAVYYCAAAYPRVTYNYGYYWGQGTQVTVSS | high polyreactivity
8 | QVQLVEAGGGLVQAGGSLRLSCAASGSIFKSYAMGRYRQAPGKEREFVASITKSGGTTYYADSVKGRFTISRDHAKNTVYLQMNSLKPEDTAVYYCAADWYRSSWTYNYLGQGTQVTVSS | low polyreactivity
9 | QVQLVEAGGGLVQAGGSLRLSCAASGSTFRRYAMGWYRQAPGKERVLVAAITTRGGSTYYADSVKGRFTISRDNAKNTVYLQMNSLKPEDTAVYYCARDYSTYLRTAGDYWGQGTQVTVSS | low polyreactivity
10 | QVQLVEAGGGLVQAGGSLRLSCGASGFTFVYYAMGWYRQAPGKERELVAAISRSGGSTYYADSVKGRFTISRDNAKNTVYVQMNSLKPEDTAVYYCAARKNYGSRLSYEYWGQGTQVTVSS | high polyreactivity
11 | QVQLVEARGGLVQAGGSLRLSCAASGSILRYTMGWYRPAPGKERELVAAITRSGTSTYYADSVKGRFTISRDNAKNTVYLQMNSLKPEDTAVYYCAAREKYASHEYDYWGQGTQVTVSS | high polyreactivity
12 | QVQLVEPGGGIVQAGGSLRLSCAASGYIFYNYAMGWYRQAPGKERELVAAITSGGSTYYADSVKGRFTISRDNAKNTVYFQMNSLKPEDTAVYYCAAYLFPAYSRISNDYWGQGTQVTVSS | high polyreactivity
13 | QVQLVESAAGLFQAGGRLRLSCAASGRICGFYAKGWYTQAPGKQRDLVAAITVSGSSTRYADSVKGRFTISRDNAKNTVYLQMNSLKPEDTAVYYCAARIRAKYSYGYWGQVTQVTVSS | high polyreactivity
14 | QVQLVESAAGLVQAGGSLRISCAASGYTFWLYAMGWYRQAPGKEREFVAAISTSGGSTYADSVKGRFTISRDNAKNTVYLQMNSLKPEDTAVYYCNAGYLLYYDYHLFYWGQGTQVTVSS | low polyreactivity
15 | QVQLVESAAGLVQAGGSLRLSCAASGFTFSFYTMGWYRQAPAKDRELVAAISSGGTPYYADSVKGRFTISRDNAKNTVYLQMNSLKPEDTAVYYCAAYGRYASWIEFYSNYDYWGQGTQVTVSS | low polyreactivity
16 | QVQLVESAAGLVQAGGSLRLSCAASGSIFSYYAMGWSRQAPGKERELVAAITGRGGNTYYADSVKGRFTISRDNAKNTVYLQMNSLKPEDTAVDYCAKDYFGWYDVETPYDYWGQGTQVTVSS | low polyreactivity
17 | QVQLVESAAGLVQAGGSLRLSCPASGITFYYYAKGWYRQEPGKESELVAAISGGGDSTYYADSVKGRFTISRDNAKNTVYLQMNSLKPEDTAVYYCAAGQDYWVPDDSLFYYWGQGTQVTVSS | low polyreactivity
18 | QVQLVESAAGLVQAGGSLRLTCDGSGTTFPGYAMGWYRPEPGNERELVAAGGSTYYADSVKGRFTISRDNAKNTVYFQMNCLKPVETAGYYCAASWGSFQKGTYYYWGQGTQVTVSS | low polyreactivity
19 | QVQLVESAAGLVQAVGSLRLSCAPSGITFYDYTMGWYRQAPGKERELVAAITSSGVSTYYADSVKGRFTISRDNAKNTVYLQMNSLKPEDTAVYYCATDAWSVYSYLAFTYDYWGQGTQVTVSS | low polyreactivity
20 | QVQLVESAGALVQAGGRLRLSCAASGRTFRKYAMGWYRQAPGTERELVAAISWSGGSTYYANSVKGRFTISRDNAKNTVYLQMNSLKPEDTAVYYWAAVPVHTGSLYWGFTTGYDYWGQGTQVTVSS | low polyreactivity
21 | QVQLVESAGGIVQAGGSLRLSCAASGFTFTGYAMGWYRQAPGKEREMVAAINARGTSTYYADSVKGRFTISRDNAKNTVYLQMNSLKPEDTAVYYCNREGRSVSGYYYYWGQGTQVTVSS | high polyreactivity
22 | QVQLVESAGGIVQAGGSLRLSCAASGSTFGVYAMGLYRQAPGKERELVASISSGDSTTYADSVKGRFTISRDNAKNTVYFQMNSLKPDVTAVYYCNAVYYTGYYWGHGTQVTVSS | low polyreactivity

Row | Sequence | polyreactivity (PSR sort gate)
23 | QVQLVESAGGLVQAGGRLRLSCAASGFIFYRYAMGWYRQAPGKERELVAAISRNGGSTYYADSVKGRFTISRDNAKNTVYLQRNILKPEDTAVYYCNVDYRLVRIRVDYEYWGQGTQVTVSS | high polyreactivity
24 | QVQLVESAGGLVQAGGRLRLSCAASGFTFRYYAMGWYRQAPGKERELVATITPGGSTNYADSVKGRFTISRDNAKNTVYLEMNSLKPEDTAVYYCAASLYRVIAFGYWGQGTQVTVSS | high polyreactivity
25 | QVQLVESAGGLVQAGGRLRLSCAASGSTFSYYAMGWYRQAPGKEREWVAAISRSGGSTYYADSVKGRFTISRDNAKNTVYLQLNSLKPDDTAVYYCNRYYYTVTREFDYWGQGTQVTVSS | low polyreactivity
26 | QVQLVESAGGLVQAGGSLPLSCAASGSTFASNTMGWYRQAPGKERELVAAITQSGGTTYYADSVKGRFTISRDNAKNTVSLQMNSLKPEDTAVYYCATDVGYFYTVVGGYDYWGTGTQVTVSS | low polyreactivity
27 | QVQLVESAGGLVQAGGSLRLICAASGGTFSTYAIGWYRQAPGKEREFVAAITRSGTSTYYADSVKGRFTISRDNAKNTVYLQMNGLNPEDTAVYYCAAGVYSFRYDYWGQGTQVTVSS | low polyreactivity
28 | QVQLVESAGGLVQAGGSLRLSCAASASTFTNYVMGWYRQAPGKERELVAAITKSGGSTYYADSVKGRYTISRDNAKNTVYLQMNRLKPEDTAVYYCAARRTTEFGYWGQGTQVTVSS | high polyreactivity
29 | QVQLVESAGGLVQAGGSLRLSCAASGFIFGKNAMGLYRQAPGKERELVAVITRSGSRTYYADSVKGRLTISRDNAKNTVYLQMNSLKPEDTAVYYCATDNVYAYDYWGLGTQVTVSS | high polyreactivity
30 | QVQLVESAGGLVQAGGSLRLSCAASGFIFHRYAMGWYRQAPGKERELVAAITGRGSSTYYADSVKGRFTISRDNAKNTVYLQMNSLKPEDTAVYYCNAYRYQVYDTGWFGYWGQGTQVTVSS | high polyreactivity
31 | QVQLVESAGGLVQAGGSLRLSCAASGFIFRNYAMGWYRQEHGKERELVAAISRRGGSTYYADSVKGRFTISRDNAKNTVYLQMNSLKPEDTAVYYCAADYYYSSRIEYYYWGQGTQVTVSS | high polyreactivity
32 | QVQLVESAGGLVQAGGSLRLSCAASGFIFVKYAMGWDRQAPGKERELVAAISSRGGITYYADSVKGRYTISRDNAENTVYLQMISLKPADTAVYYCNTVSRGYRGNYWGQGTQVTVSS | low polyreactivity
33 | QVQLVESAGGLVQAGGSLRLSCAASGFIFVKYVMGWYRQEPGKERELVATISNGVSTNYADSVKGRFTISRDNAKNTVYLQMNSLKPEDTAVYDCNTGSNAWYFSGDYWGQGTQVTVSS | low polyreactivity
34 | QVQLVESAGGLVQAGGSLRLSCAASGFTFGWYAMGWYRQAPGKERELVAAISSTGGRTYYADSVKGRFTISRDNAKNTVYLQMNSLKPEDTAVYYCAAAYSYGTEYGYWGQGTQVTVSS | high polyreactivity
35 | QVQLVESAGGLVQAGGSLRLSCAASGFTFRYYAMGWYRQAPGKERELVAAISWSGGRTYYADSVKWRLTISRDNANNTVYLQMNSLKPEDTADYYCAADGYQYFYGDFDYWGQGTQVTVSS | high polyreactivity
36 | QVQLVESAGGLVQAGGSLRLSCAASGFTFYFYAMGWSRQAPGKERELVAAISRSGSRTYYADSVKGRFTISRDNAKNTVYLQMNSLKPEDTAVYYCARVRPRGLYFVLHYDYWGQGTQVTVSS | high polyreactivity
37 | QVQLVESAGGLVQAGGSLRLSCAASGFTFYYYTMGWYRQAPGKETELVAAITWRGGSTNYADSVKGRFTISRDNAKNTVYLQMNSLKPEDTAVYYCAAVSYWFWPGMDYWGQGTQVTVSS | low polyreactivity
38 | QVQLVESAGGLVQAGGSLRLSCAASGGIFFSYAMGWYRQAPGKERELVAAIRTNGGTTYYADSVKGRFTISRDNAKNNVYLQMNSLTPEDTAVYYCASLPGGYYDRGEYDYWGQGTQVTVSS | low polyreactivity
39 | QVQLVESAGGLVQAGGSLRLSCAASGIIFPVYAMGWYRQAPGKERELVAAITSSGGSTYYADSVKGRFTISRDNAKNTVYLQMNSLKPEDTAVYYFAAVRKSRFDYGGQGTQVTVSS | high polyreactivity
40 | QVQLVESAGGLVQAGGSLRLSCAASGIIFTSNTMGWYRQAPGKEREFVASINWNGSSTYADSVKGRFTISRDNAKNTVYLQMNSLKPEDTAVYYCAADWLGYQYGYWGQGTQVTVSS | low polyreactivity
41 | QVQLVESAGGLVQAGGSLRLSCAASGLIFRFNAMGWYRQAPGKERELVAAITRAGSTYYADSVKGRFTISRDNAKKTVYLQMNSLKPEDTAVYYCAAGQYRLPQRGYGYWGQGTQVTVSS | high polyreactivity
42 | QVQLVESAGGLVQAGGSLRLSCAASGLTFPPNAMGWYRHAPGKERELVADSGGSTNYADSVKGRFTISRDNAKNTVYLQMNSLKPEDTAVYYCAAPPYSDGQWDDYWGQGSQVTVSS | low polyreactivity
43 | QVQLVESAGGLVQAGGSLRLSCAASGNTFPPYPMGWYRQAPGKERELVAAISCGGRTYYADSVKGRFTISRDNAKNTVYLQMNSLKPEDTAVYYCAVYVPNYYSYHYDYWGQGTQVTVSS | high polyreactivity
